Literature values as cited in publication PMC5979445.

Molecular target: Calmodulin (UniProt P0DP23)

Kd: 54 nM
Substance: TRPV1 CaM binding domain (from UniProt Q8NER1)
